Data from patent US9217011B2, “Non-natural proteinaceous scaffold made of three non-covalently associated peptides” (Complix NV, priority 2007, dated 2015).
Where two headings read alike, the source gives them in different places.

Format: physicochemical
Details: for alpha-helical secondary structure from CD spectrum: 292 microM, pH 7.2; for reversibility of thermal unfolding (up and down scan): CD signal as a function of temperature, about 1 degree Celsius per minute
Experimental: The said synthesized peptide was dissolved at a concentration of 292 microM in 20 mM phosphate buffer (PBS), 150 mM NaCl, pH 7.2. The CD spectra were measured between […], at 5 and 90 degrees Celsius (FIG. 3).
To analyse whether the temperature-induced transition between helical and nonhelical states was reversible, a forward (up) and backward (down) thermal scan was performed on the same sample, by recording the CD signal at […] as a function of temperature at a scanning rate of about 1 degree Celsius per minute (FIG. 4).
It was further analyzed whether the thermal unfolding curve of FIG. 4 conformed to the thermodynamic equations describing the equilibrium folding/unfolding reaction between three molecules free (monomeric) peptide and one entity of folded (trimeric) complex. This reaction is generally written as 3 peptide <=> peptide3
[formula] [formula] [formula] and • T≡the temperature, in degrees Kelvin, of the sample • θ(T)≡the CD-signal [theta]222 nm, in deg cm^2 dmol^−1, as a function of T • θM(T)≡the CD-signal for 100% free (monomeric) peptide as a function of T • θT(T)≡the CD-signal for 100% associated (trimeric) peptide as a function of T • Tt≡the transition temperature, where 50% of the total peptide concentration is associated • ΔHt≡the enthalpy difference, in kJ per mole peptide, between mono- and trimeric states • ΔCp≡the heat capacity difference, in J mol^−1 K^−1, between mono- and trimeric states • R≡the ideal (universal) gas constant≡8.31 J mol^−1 K^−1
FIG. 5 represents fitting of a theoretic equation for trimeric association to experimental data. The experimental data are taken from FIG. 4, curve labeled “UP”. The theoretic equations used are listed supra. The fitted parameters (fitting results) are listed at the right in FIG. 5. “Transit. T” corresponds to Tt, but is expressed here in degrees Celsius. The parameter “delta Cp” was kept constant at 3.0 kJ mol^−1 K^−1. The parameters “thetaM(T)” and “thetaT(T)” were treated as linear functions of T, resulting in the white straight lines described by the respective offsets and slopes indicated at the right in the figure. “RMS Resid.” refers to the root-mean-square of the differences between experimental and theoretic data points. The fitted (theoretic) curve itself is plotted in white on the figure and coincides over the entire temperature range with the experimental data points shown in black.

Substance	thermal stability (in words)	alpha-helical secondary structure from CD spectrum (5 degrees Celsius)	alpha-helical secondary structure from CD spectrum (90 degrees Celsius)	reversibility of thermal unfolding (up and down scan)	temperature up to which the peptide did not quantitatively unfold (thermal CD scan) [degrees Celsius]	estimated transition temperature (thermal denaturation curve, same conditions as Example 3 (292 microM, 20 mM phosphate buffer, 150 mM NaCl, pH 7.2), transition incomplete)
Ac-MSIEEIQKQQAAIQKQIAAIQKQIYRMTP-NH2 [Q2a]	moderately stable	high alpha-helical secondary structure content	greatly, but not completely, lost	up and down scans almost perfectly coincided		
Ac-MSIEEIQKQIAAIQKQIAAIQKQIYRMTP-NH2 [Q2aI]	extremely thermostable			full reversibility	≥ 95	around 97 degrees Celsius
